Reference: US20210388110A1 (published 2021)
Changes are numbered by the printed parent chain.

B1: H0610-G1dh/none-Hi-Kn010G3/L0000-k0 (antibody, human IgG1, kappa)
heavy: not shown
chain: EPKSSDKTHTCPPCPAPELLGGPSVFLFPPKPKDTLMISRTPEVTCVVVDVSHEDPEVKFNWYVDGVEVHNAKTKPREEQYNSTYRVVSVLTVLHQDWLNGKEYKCKVSNKALPAPIEKTISKAKGQPREPQVCTLPPSRDELTKNQVSLWCLVKGFYPSDIAVEWESNGQPENNYKTTPPVLDSDGSFFLYSKLTVDKSRWQQGNVFSCSVMHEALHNRYTQKSLSLSP
light: DIVMTQSPLSLPVTPGEPASISCRSSQSLVHSNRNTYLHWYQQKPGQAPRLLIYKVSNRFSGVPDRFSGSGSGTDFTLKISRVEAEDVGVYYCGQGTQVPYTFGQGTKLEIKRTVAAPSVFIFPPSDEQLKSGTASVVCLLNNFYPREAKVQWKVDNALQSGNSQESVTEQDSKDSTYSLSSTLTLSKADYEKHKVYACEVTHQGLSSPVTKSFNRGEC
notes: single-arm (one Fab)
B2: GCH010-G1dh/none-Hi-Kn010G3/L0000-k0 (antibody, human IgG1, kappa)
heavy: not shown
chain: B1 chain
light: B1 light
notes: single-arm (one Fab)
B3: GCH057-G1dh/none-Hi-Kn010G3/L0215-k0 (antibody, human IgG1, kappa)
heavy: not shown
chain: B1 chain
light: B1 light with S28P, L29P, L38I
notes: single-arm (one Fab)
B4: GCH054-G1dh/none-Hi-Kn010G3/L0222-k0 (antibody, human IgG1, kappa)
heavy: not shown
chain: B1 chain
light: B1 light with L29P, L38I, H39Q, G94Y
notes: single-arm (one Fab)
B5: GCH043-G1dh/none-Hi-Kn010G3/L0000-k0 (antibody, human IgG1, kappa)
heavy: not shown
chain: B1 chain
light: B1 light
notes: single-arm (one Fab)
B6: GCH056-G1dh/none-Hi-Kn010G3/L0262-k0 (antibody, human IgG1, kappa)
heavy: not shown
chain: B1 chain
light: B1 light with S28P, L29P, G94A
notes: single-arm (one Fab)
B7: GCH053-G1dh/none-Hi-Kn010G3/L0000-k0 (antibody, human IgG1, kappa)
heavy: not shown
chain: B1 chain
light: B1 light
notes: single-arm (one Fab)
B8: GCH006-G1dh/none-Hi-Kn010G3/L0000-k0 (antibody, human IgG1, kappa)
heavy: not shown
chain: B1 chain
light: B1 light
notes: single-arm (one Fab)
B9: GCH029-G1dh/none-Hi-Kn010G3/L0000-k0 (antibody, human IgG1, kappa)
heavy: not shown
chain: B1 chain
light: B1 light
notes: single-arm (one Fab)
B10: GCH019-G1dh/none-Hi-Kn010G3/L0000-k0 (antibody, human IgG1, kappa)
heavy: not shown
chain: B1 chain
light: B1 light
notes: single-arm (one Fab)
B11: GCH054-G1dh/none-Hi-Kn010G3/TR01L016-k0 (antibody, human IgG1, kappa)
heavy: not shown
chain: B1 chain
light: B1 light with L29P, Q42L, A48S, R50Q, G94Y
notes: single-arm (one Fab)
B12: GCH054-G1dh/none-Hi-Kn010G3/TR01L018-k0 (antibody, human IgG1, kappa)
heavy: not shown
chain: B1 chain
light: B1 light with R24Q, S25A, Q27E, L29P, Q42L, A48S, R50Q
notes: single-arm (one Fab)
B13: GCH057-G1dh/none-Hi-Kn010G3/L0222-k0 (antibody, human IgG1, kappa)
heavy: not shown
chain: B1 chain
light: B1 light with L29P, L38I, H39Q, G94Y
notes: single-arm (one Fab)
B14: GCH056-G1dh/none-Hi-Kn010G3/L0215-k0 (antibody, human IgG1, kappa)
heavy: not shown
chain: B1 chain
light: B1 light with S28P, L29P, L38I
notes: single-arm (one Fab)
B15: GCH054-G1dh/none-Hi-Kn010G3/L0249-k0 (antibody, human IgG1, kappa)
heavy: not shown
chain: B1 chain
light: B1 light with S25P, L29P, L38I, H39Q, G94S
notes: single-arm (one Fab)
B16: GCH054-G1dh/none-Hi-Kn010G3/L0212-k0 (antibody, human IgG1, kappa)
heavy: not shown
chain: B1 chain
light: B1 light with S25P, L29P, G94Y
notes: single-arm (one Fab)
B17: GCH039-G1dh/none-Hi-Kn010G3/L0000-k0 (antibody, human IgG1, kappa)
heavy: not shown
chain: B1 chain
light: B1 light
notes: single-arm (one Fab)
B18: GCH060-G1dh/none-Hi-Kn010G3/L0200-k0 (antibody, human IgG1, kappa)
heavy: not shown
chain: B1 chain
light: B1 light with S25P, L29P
notes: single-arm (one Fab)
B19: GCH027-G1dh/none-Hi-Kn010G3/L0000-k0 (antibody, human IgG1, kappa)
heavy: not shown
chain: B1 chain
light: B1 light
notes: single-arm (one Fab)
B20: GCH060-G1dh/none-Hi-Kn010G3/L0222-k0 (antibody, human IgG1, kappa)
heavy: not shown
chain: B1 chain
light: B1 light with L29P, L38I, H39Q, G94Y
notes: single-arm (one Fab)
B21: GCH025-G1dh/none-Hi-Kn010G3/L0204-k0 (antibody, human IgG1, kappa)
heavy: not shown
chain: B1 chain
light: B1 light with L29P, S61R
notes: single-arm (one Fab)
B22: GCH015-G1dh/none-Hi-Kn010G3/L0000-k0 (antibody, human IgG1, kappa)
heavy: not shown
chain: B1 chain
light: B1 light
notes: single-arm (one Fab)
B23: GCH064-G1dh/none-Hi-Kn010G3/L0000-k0 (antibody, human IgG1, kappa)
heavy: not shown
chain: B1 chain
light: B1 light
notes: single-arm (one Fab)
B24: GCH054-G1dh/none-Hi-Kn010G3/L0215-k0 (antibody, human IgG1, kappa)
heavy: not shown
chain: B1 chain
light: B1 light with S28P, L29P, L38I
notes: single-arm (one Fab)
B25: GCH055-G1dh/none-Hi-Kn010G3/L0222-k0 (antibody, human IgG1, kappa)
heavy: not shown
chain: B1 chain
light: B1 light with L29P, L38I, H39Q, G94Y
notes: single-arm (one Fab)
B26: GCH054-G1dh/none-Hi-Kn010G3/L0246-k0 (antibody, human IgG1, kappa)
heavy: not shown
chain: B1 chain
light: B1 light with L29P, L38I, H39Q, G94S
notes: single-arm (one Fab)
B27: GCH014-G1dh/none-Hi-Kn010G3/L0000-k0 (antibody, human IgG1, kappa)
heavy: not shown
chain: B1 chain
light: B1 light
notes: single-arm (one Fab)
B28: GCH055-G1dh/none-Hi-Kn010G3/L0200-k0 (antibody, human IgG1, kappa)
heavy: not shown
chain: B1 chain
light: B1 light with S25P, L29P
notes: single-arm (one Fab)
B29: GCH013-G1dh/none-Hi-Kn010G3/L0000-k0 (antibody, human IgG1, kappa)
heavy: not shown
chain: B1 chain
light: B1 light
notes: single-arm (one Fab)
B30: GCH054-G1dh/none-Hi-Kn010G3/TR01L015-k0 (antibody, human IgG1, kappa)
heavy: not shown
chain: B1 chain
light: B1 light with L29P, Q42L, A48S, R50Q
notes: single-arm (one Fab)
B31: GCH065-G1dh/none-Hi-Kn010G3/L0000-k0 (antibody, human IgG1, kappa)
heavy: not shown
chain: B1 chain
light: B1 light
notes: single-arm (one Fab)
B32: GCH054-G1dh/none-Hi-Kn010G3/L0200-k0 (antibody, human IgG1, kappa)
heavy: not shown
chain: B1 chain
light: B1 light with S25P, L29P
notes: single-arm (one Fab)
B33: GCH035-G1dh/none-Hi-Kn010G3/L0000-k0 (antibody, human IgG1, kappa)
heavy: not shown
chain: B1 chain
light: B1 light
notes: single-arm (one Fab)
B34: GCH040-G1dh/none-Hi-Kn010G3/L0000-k0 (antibody, human IgG1, kappa)
heavy: not shown
chain: B1 chain
light: B1 light
notes: single-arm (one Fab)
B35: GCH054-G1dh/none-Hi-Kn010G3/TR01L019-k0 (antibody, human IgG1, kappa)
heavy: not shown
chain: B1 chain
light: B1 light with R24Q, S25A, Q27E, L29P, Q42L, A48S, R50Q, G94Y
notes: single-arm (one Fab)
B36: GCH054-G1dh/none-Hi-Kn010G3/L0201-k0 (antibody, human IgG1, kappa)
heavy: not shown
chain: B1 chain
light: B1 light with S28P, L29P
notes: single-arm (one Fab)
B37: GCH042-G1dh/none-Hi-Kn010G3/L0000-k0 (antibody, human IgG1, kappa)
heavy: not shown
chain: B1 chain
light: B1 light
notes: single-arm (one Fab)
B38: GCH062-G1dh/none-Hi-Kn010G3/L0000-k0 (antibody, human IgG1, kappa)
heavy: not shown
chain: B1 chain
light: B1 light
notes: single-arm (one Fab)
B39: GCH055-G1dh/none-Hi-Kn010G3/L0212-k0 (antibody, human IgG1, kappa)
heavy: not shown
chain: B1 chain
light: B1 light with S25P, L29P, G94Y
notes: single-arm (one Fab)
B40: GCH055-G1dh/none-Hi-Kn010G3/L0215-k0 (antibody, human IgG1, kappa)
heavy: not shown
chain: B1 chain
light: B1 light with S28P, L29P, L38I
notes: single-arm (one Fab)
B41: GCH045-G1dh/none-Hi-Kn010G3/L0000-k0 (antibody, human IgG1, kappa)
heavy: not shown
chain: B1 chain
light: B1 light
notes: single-arm (one Fab)
B42: GCH054-G1dh/none-Hi-Kn010G3/L0262-k0 (antibody, human IgG1, kappa)
heavy: not shown
chain: B1 chain
light: B1 light with S28P, L29P, G94A
notes: single-arm (one Fab)
B43: GCH054-G1dh/none-Hi-Kn010G3/L0203-k0 (antibody, human IgG1, kappa)
heavy: not shown
chain: B1 chain
light: B1 light with L29P, L38I
notes: single-arm (one Fab)
B44: GCH007-G1dh/none-Hi-Kn010G3/L0000-k0 (antibody, human IgG1, kappa)
heavy: not shown
chain: B1 chain
light: B1 light
notes: single-arm (one Fab)
B45: GCH065-G1dh/none-Hi-Kn010G3/L0011-k0 (antibody, human IgG1, kappa)
heavy: not shown
chain: B1 chain
light: B1 light with S28P
notes: single-arm (one Fab)
B46: GCH016-G1dh/none-Hi-Kn010G3/L0000-k0 (antibody, human IgG1, kappa)
heavy: not shown
chain: B1 chain
light: B1 light
notes: single-arm (one Fab)
B47: GCH056-G1dh/none-Hi-Kn010G3/L0201-k0 (antibody, human IgG1, kappa)
heavy: not shown
chain: B1 chain
light: B1 light with S28P, L29P
notes: single-arm (one Fab)

Each binder was assayed against T1, soluble human GPC3 (human, UniProt P51654 25-563, limits assumed) (assay: SPR (Biacore), soluble human GPC3).
T1 construct: soluble human GPC3 as analyte; also called glypican 3
T1 sequence (P51654 other isoform, or with tags, fused parts or gaps limits assumed, form in doubt): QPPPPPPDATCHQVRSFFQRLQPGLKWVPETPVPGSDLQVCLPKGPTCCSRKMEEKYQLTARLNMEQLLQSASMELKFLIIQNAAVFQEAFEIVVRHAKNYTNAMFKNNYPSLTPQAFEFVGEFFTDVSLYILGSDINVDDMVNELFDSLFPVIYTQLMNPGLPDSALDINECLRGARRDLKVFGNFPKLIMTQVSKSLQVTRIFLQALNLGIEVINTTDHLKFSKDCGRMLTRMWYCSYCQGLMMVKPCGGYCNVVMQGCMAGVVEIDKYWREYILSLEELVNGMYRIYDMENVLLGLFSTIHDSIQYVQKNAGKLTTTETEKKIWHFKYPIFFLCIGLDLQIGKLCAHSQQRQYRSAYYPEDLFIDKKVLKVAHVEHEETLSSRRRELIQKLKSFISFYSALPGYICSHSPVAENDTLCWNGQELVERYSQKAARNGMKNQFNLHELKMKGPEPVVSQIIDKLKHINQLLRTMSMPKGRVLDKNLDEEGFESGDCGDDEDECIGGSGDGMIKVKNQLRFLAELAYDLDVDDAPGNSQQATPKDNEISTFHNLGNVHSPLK
B1 showed a Kd of 3.97 nM.
With B2 the Kd was 4.12 nM.
In the case of B3, the Kd is reported as 1.83 nM.
Binder B4 has a Kd of 0.0315 nM.
Work on B5 yielded a Kd of 3.74 nM.
B6 was tested, and the Kd was 0.0119 nM.
Work on B7 yielded a Kd of 4.05 nM.
For B8, the Kd was 4.06 nM.
With B9 the Kd was 5.01 nM.
With B10 the Kd was 4.36 nM.
Binder B11 has a Kd of 0.763 nM.
For B12, the Kd was 2.59 nM.
Work on B13 yielded a Kd of 0.00185 nM.
For B14, the Kd was 1.59 nM.
B15 was tested, and the Kd was 0.00361 nM.
Work on B16 yielded a Kd of 0.517 nM.
In the case of B17, the Kd is reported as 4.95 nM.
For B18, the Kd was 1.34 nM.
With B19 the Kd was 3.83 nM.
For B20, the Kd was 0.000642 nM.
B21 showed a Kd of 0.67 nM.
B22 showed a Kd of 4.14 nM.
B23 gave a Kd of 4.14 nM.
Work on B24 yielded a Kd of 1.62 nM.
B25 showed a Kd of 0.0039 nM.
In the case of B26, the Kd is reported as 0.0315 nM.
In the case of B27, the Kd is reported as 4.2 nM.
B28 showed a Kd of 1.13 nM.
In the case of B29, the Kd is reported as 4.44 nM.
Binder B30 has a Kd of 2.45 nM.
For B31, the Kd was 1.41 nM.
In the case of B32, the Kd is reported as 1.18 nM.
B33 gave a Kd of 4.94 nM.
In the case of B34, the Kd is reported as 4.8 nM.
With B35 the Kd was 0.871 nM.
Work on B36 yielded a Kd of 1.08 nM.
B37 showed a Kd of 4.89 nM.
B38 showed a Kd of 3.73 nM.
B39 gave a Kd of 0.614 nM.
For B40, the Kd was 1.52 nM.
B41 gave a Kd of 4.63 nM.
In the case of B42, the Kd is reported as 0.000525 nM.
B43 gave a Kd of 2.48 nM.
B44 gave a Kd of 4.93 nM.
B45 gave a Kd of 0.884 nM.
B46 showed a Kd of 4.59 nM.
B47 showed a Kd of 1.16 nM.
